Where “and” joins values, the source holds several entries; their conditions need not be identical. Equal entries are not always repeated.
Tests used:
[1] = molecular target: SARS-CoV-2 spike protein, South African Δ3 B.1.351 variant (pseudovirus RVP-724) (SARS-CoV-2) (UniProt P0DTC2); assay: cell-based or functional assay
[2] = molecular target: SARS-CoV-2 spike protein, N439K variant (pseudovirus RVP-703) (SARS-CoV-2) (UniProt P0DTC2); assay: cell-based or functional assay

Substance: REGN10987 (Imdevimab, biosimilar version) (antibody)
- EC50 (pM) Neutralization, South Africa B.1.351 [1]: 2.48 pM and 2.37 pM
- EC50 (pM) Neutralization, N439K [2]: 2260 pM and 2220 pM
- fold less potent than REGN10933 in pseudovirus neutralization [2]: 1000 fold
